Measurements: patent publication US20250129166A1

Molecular target: full length human PSGL-1 (SEQ ID NO: 3) expressed on heparan sulfate-mutant CHO cells (human) (UniProt Q14242)
Experiment: blocking of VISTA-Fc binding to CHO-PSGL-1 cells (the blocked ligand is VISTA-Fc); cells pre-incubated with antibody and read by flow cytometry or HTRF

Sequence of full length human PSGL-1 (SEQ ID NO: 3) expressed on heparan sulfate-mutant CHO cells (human) (Q14242 42-412 limits assumed, change not shown): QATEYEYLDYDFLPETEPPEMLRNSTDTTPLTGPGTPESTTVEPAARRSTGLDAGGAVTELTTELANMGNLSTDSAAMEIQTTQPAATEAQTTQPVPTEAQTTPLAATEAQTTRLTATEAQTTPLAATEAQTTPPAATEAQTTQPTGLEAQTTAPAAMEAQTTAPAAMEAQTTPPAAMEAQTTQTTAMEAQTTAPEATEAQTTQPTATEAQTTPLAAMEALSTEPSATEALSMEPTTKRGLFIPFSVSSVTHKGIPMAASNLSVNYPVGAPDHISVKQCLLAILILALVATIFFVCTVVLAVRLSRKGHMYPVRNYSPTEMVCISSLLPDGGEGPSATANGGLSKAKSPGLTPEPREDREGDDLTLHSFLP

IC50 (read off the curve): 0.06 µg/mL
Substance: anti-PSGL-1 antibody KPL-1 (BD Biosciences or Biolegend)
